The text below walks through data of patent publication US20140186352A1 (DEVELOPMENT CENTER FOR BIOTECHNOLOGY, published 2014).

The labels stand for the following.
T1: granulysin mutant RRRRR94/97/100/102/104AAAAA (Homo sapiens (Human), UniProt P22749 23-145, limits assumed)
T1 construct: not shown: His tag
T1 chain: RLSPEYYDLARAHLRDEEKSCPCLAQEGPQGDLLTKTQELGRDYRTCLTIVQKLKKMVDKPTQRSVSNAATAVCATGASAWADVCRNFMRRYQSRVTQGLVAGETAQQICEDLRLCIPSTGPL

T2: granulysin mutant RRRR97/100/104/108AAAA (Homo sapiens (Human), UniProt P22749 23-145, limits assumed)
T2 construct: Expressed in 293T cells, culture supernatant used; not shown: His tag
T2 chain: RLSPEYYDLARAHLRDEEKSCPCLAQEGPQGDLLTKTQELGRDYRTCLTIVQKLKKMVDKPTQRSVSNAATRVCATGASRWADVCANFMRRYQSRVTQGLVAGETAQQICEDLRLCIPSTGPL

T3: denatured granulysin (10His tag, expressed in 293T cells, run on denaturing SDS-PAGE) (UniProt P22749 23-145, limits assumed)
T3 construct: Same protein as native granulysin but denatured; probed on a blot with the test antibodies and anti-human-HRP; not shown: 10His tag
T3 sequence (looked up): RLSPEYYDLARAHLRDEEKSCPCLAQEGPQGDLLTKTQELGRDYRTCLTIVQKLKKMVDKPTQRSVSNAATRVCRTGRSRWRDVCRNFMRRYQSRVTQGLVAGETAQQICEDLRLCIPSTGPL

B1: BGF33-19 (antibody, V domains shown)
VH: QVQLQQSGAELVRPGTSVKVSCKASGYAFTNYLIEWVKQRPGQGLEWIGVINPGSGGTNYNEKFKGKATLTADKSSSTAYMQLSSLTSDDSAVYFCAREGEKHSYYFDYWGQGTTLTVSS
VL: DIVLTQSPASLAVSLGQRATISCRASESVDSYGDSFMHWYQQKPGQPPKLLIYLASNLESGVPARFSGSGSRTDFTLTIDPVEADDAATYYCQQNNEDPPTFGGGTKLEIKR
notes: Phage display clone
B2: BGF2A2-92 (antibody, V domains shown)
VH: EVQLVESGGGLVQPGGSLKLSCAASGFTFSDYYMYWVRQTPEKRLEWVATISDGGDYTYYPDSVKGRFTISRDNAKNNLYLQMSSLKSEDTAMYYCAREGDYYGPFAYWGQGTTLTVSS
VL: DIVMTQSQKFMSTSVGDRVSITCKASQNVGTAVAWYQQKPGQSPKALIYSASYRYSGVPDRFTGSGSGTDFTLTISNVQSEDLAEYFCQQYNSYPYTFGGGTKLEIKR
notes: Phage display clone
B3: GP42-27 (antibody, V domains shown)
VH: QVKLQESGAELVRPGTSVKISCKASGYTFTNYDINWVKQRPGQGLEWIGWIDPGDGRTKYNENFKDKASLTADKSSSTAYMQLSSLTSEDSAVYYCARVGDDYDGGFDYWGQGTTVTVSS
VL: DIELTQSPASLAVSLGQRATISCRASESVDSYGNSFMHWYQQKPGQPPRLLIYAASNQESGIPARFSGSGSRTDFTLTINPVEADDVATYYCQQSYEDPYTFGGGTKLELKR
notes: Phage display clone
B4: 34.22Chi (antibody, V domains shown)
VH: QVQLQQSGAELVRPGVSVKISCKGSGYTFTDYSIHWVKQSHAKSLEWIGVISSYYGDARHNQKFKGKATMTVDKSSSTAYMELARLTSEDSAIYYCARDGYYGYAMDYWGQGTSVTVSS
VL: DVVMTQTPLSLPVSLGDQASISCRSTQSLVHSNGNTYLHWYLQKPGQSPKLLIYKVSYRFSGVPDRFSGSGSGTDFTLKISRVEAEDLGVYFCSQSTHVPFTFGSGTKLEIKR
notes: also called chimeric antibody of the variable region of M34.22 fused with the constant region of human IgG1
B5: GP42-09 (antibody, V domains shown)
VH: QVKLQQSGAELVRPGALVKLSCKASGFNIKDYYMHWVKQRPEQGLEWIGWIDPENGNTIYDPKFQGKASITADTSSNTAYLQLSSLTSEDSAVYFCARVGDDYDGDFDYWGQGTTVTVSS
VL: DIELTQSPASLAVSLGQRATISCRASESVDSYGDSFMHWYQQKPGQPPKLLIYRASNLESGIPARFSGSGSRTDFTLTINPVEADDVATYYCQQSYEDPYTFGGGTKLEIKR
notes: Phage display clone
B6: GP42-10 (antibody, V domains shown)
VH: QVKLQQSGPDLVKPGSLVKISCKASGYTFSNYDINWVKQRPGQGLEWIGWIDPGNGRTKYNEKFEDKATLTADKSSSTAYMQLSSLTSEDSAVYFCARVGDDYDGDFDYWGQGTTVTVSS
VL: DIELTQSPTIMSASPGEKVTMTCRASESVDSYGNSFMHWYQQKPGLPPKLLIYRASNLESGIPARFSGSGSRTDFTLTINPVEADDVATYYCQQSNEYPYTFGGGTKLEIKR
notes: Phage display clone
B7: GP31-52 (antibody, V domains shown)
VH: QVQLQQSGPDLVKPGALVKISCKASGYSFTNYDINWVKQRPGQGLEWIGWIDPGNGRTKYNEKFTGKASLTADKSSSTAYMVLSSLTSENSAVYFCARVGDDYDGGFDYWGQGTTVTVSS
VL: DIELTQSPSIMAASLGQKVTMTCSASSSVSSSYLHWYQQKSGASPKPLIHRTSNLASGVPARFSGSGSGNSYSLTISSMEAEDVATYYCFQGSGYPYTFGGGTKLEIKR
notes: Phage display clone
B8: GP42-58 (antibody, V domains shown)
VH: QVKLQQSGPDLVKPGALVKISCKASGYTFTSYDINWVKQRPGQGLEWIGWIDPGDGRTKYNEKFEGKASLTADKSSSTAYMLLSSLTSDNSAVYFCARVGDDYDGGFDYWGQGTTVTVSS
VL: DIELTQSPAIMSASPGEKVTISCSASESVDSYGNSFMNWYQQKPGQPPKLLIYRASNLESGIPVRFSGGGSRTDFTLTINPVEADDVATYYCQQSNEYPYTFGGGTKLEIKR
notes: Phage display clone
B9: 16.7Chi (antibody, V domains shown)
VH: EVLLQQSGPELVKPGASVKISCKASGYTFTDYNMDWVKQSHGKSLEWIGDINPNVGDTIYNQKFKGKATLTVDKSSSTAYMELRSLTSEDSAVYYCVRSDDDYSWFAHWGQGTLVTVSA
VL: SIVMTQTPKFLLVSAGDRVTITCKASQSVSNDVAWYQQKSGQSPKLLIYYASNRYTGVPDRFTGSGYGTDFTFTISTVQAELAVYFCQQDSSSPLTFGAGTKLELKR
notes: also called chimeric antibody of the variable region of M16.7 fused with the constant region of human IgG1
B10: 106.17Chi (antibody, V domains shown)
VH: EVLLQQSGPELVKPGASVKIPCKASGYTFTDYNMDWVKQSHGKSLEWIGDINPNNGDTIYNQNFKDKATLTVNKSSSTAYMELRSLTSEDTAVYYCVRSDDNYSWFTYWGQGTLVTVSA
VL: SIVMTQTPKFLLVSAGDRVTITCKASQSVSNDVAWYQQKSGQSPKLLIYYASNRYTGVPDRFTGSGYGTDFTFTISTVQAELAVYFCQQDSSSPLTFGAGTKLELKR
notes: also called chimeric antibody of the variable region of M106.17 fused with the constant region of human IgG1

The target in one assay is T1, granulysin mutant …. Description: ELISA, antibody coated, His-tagged mutant granulysin detected with anti-His-HRP. For orientation: An ELISA detects its analyte on a solid surface through an enzyme-linked reagent.
Protocol: (§1) To the antibody-coated plates, 200 μl of serially diluted samples (wild-type or mutant granulysin) were added to each well. The solutions were then incubated at 37° C. for 2 hours.
(§2) After washing to remove the unbound proteins, the bound proteins that were produced with His-tag (or any other tag or a fusion protein), can be detected with an anti-H is antibody coupled with HRP (for example, Sigma, A7058) at an appropriate dilution (e.g., 1:2000). The secondary antibodies were allowed to bind to the bound proteins by incubation at 37° C. for 2 hours (or any suitable duration and temperatures).
Consider B1, for which the binding result was “no binding”.

In another assay the target is T2, granulysin mutant RRRR97/100/104/108AAAA. Described as above.
Protocol: as §1, §2
For the molecule B2, the binding result was “no binding”. Same read-out and setting: to B1 belongs “no binding”.

In another assay the target is T3, denatured granulysin (10His tag, …). Description: blot of denaturing SDS-PAGE probed with the antibody, anti-human-HRP.
Description: The expressed granulysin may be run on a denatured SDS-PAGE and then probed with the test antibodies. Whether the test antibodies bind to the denatured granulysin can be detected using a secondary antibody (containing a reporter group; e.g., anti-human-HRP).
As to B3, the binding result is reported as “no binding”. B4: the binding result was “no binding”. As for B5, the binding result was “no binding”. Turning to B6, the binding result is recorded as “no binding”.

As to B7, the binding result was “no binding”.

In the case of B8, the binding result was “no binding”. On to B9, for which the binding result was “no binding”. With B10, the binding result is “no binding”.
